These results are taken from patent publication US7521053 (dated 2009).

Positions count from the first letter of the chain named.

As usually defined, the IC50 is the midpoint of a concentration-inhibition curve. A high value points to weaker potency.

The chains are these.
T1: hAng-2 (human, UniProt O15123)
T1 chain: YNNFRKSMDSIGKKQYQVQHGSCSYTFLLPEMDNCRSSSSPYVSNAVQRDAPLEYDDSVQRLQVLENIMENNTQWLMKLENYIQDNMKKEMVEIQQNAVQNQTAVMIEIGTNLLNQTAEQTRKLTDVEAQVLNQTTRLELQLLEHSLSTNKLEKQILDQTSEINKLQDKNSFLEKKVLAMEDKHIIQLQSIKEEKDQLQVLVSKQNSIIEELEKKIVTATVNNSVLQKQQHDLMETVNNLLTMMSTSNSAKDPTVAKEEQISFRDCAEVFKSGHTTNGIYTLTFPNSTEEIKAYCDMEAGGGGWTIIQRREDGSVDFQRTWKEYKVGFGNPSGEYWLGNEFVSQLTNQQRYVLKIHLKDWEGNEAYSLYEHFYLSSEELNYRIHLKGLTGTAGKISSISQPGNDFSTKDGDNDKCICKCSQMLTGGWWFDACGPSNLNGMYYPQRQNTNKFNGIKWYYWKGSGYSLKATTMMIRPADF

T2: mAng-2 (mouse, UniProt O35608)
T2 chain: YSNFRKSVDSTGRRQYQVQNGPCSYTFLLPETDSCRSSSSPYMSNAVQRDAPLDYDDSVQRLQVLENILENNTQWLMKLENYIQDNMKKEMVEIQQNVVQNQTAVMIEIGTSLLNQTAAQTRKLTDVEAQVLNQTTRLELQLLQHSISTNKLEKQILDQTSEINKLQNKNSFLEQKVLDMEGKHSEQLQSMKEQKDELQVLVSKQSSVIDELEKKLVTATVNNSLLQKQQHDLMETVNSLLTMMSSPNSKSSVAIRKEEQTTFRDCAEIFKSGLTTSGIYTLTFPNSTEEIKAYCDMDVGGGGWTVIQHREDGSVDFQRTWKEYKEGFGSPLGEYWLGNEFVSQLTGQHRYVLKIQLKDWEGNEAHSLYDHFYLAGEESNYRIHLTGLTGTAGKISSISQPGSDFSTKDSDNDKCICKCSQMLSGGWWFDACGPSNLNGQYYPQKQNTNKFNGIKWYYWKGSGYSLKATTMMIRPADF

T3: hAng-1 (human, UniProt Q15389)
T3 chain: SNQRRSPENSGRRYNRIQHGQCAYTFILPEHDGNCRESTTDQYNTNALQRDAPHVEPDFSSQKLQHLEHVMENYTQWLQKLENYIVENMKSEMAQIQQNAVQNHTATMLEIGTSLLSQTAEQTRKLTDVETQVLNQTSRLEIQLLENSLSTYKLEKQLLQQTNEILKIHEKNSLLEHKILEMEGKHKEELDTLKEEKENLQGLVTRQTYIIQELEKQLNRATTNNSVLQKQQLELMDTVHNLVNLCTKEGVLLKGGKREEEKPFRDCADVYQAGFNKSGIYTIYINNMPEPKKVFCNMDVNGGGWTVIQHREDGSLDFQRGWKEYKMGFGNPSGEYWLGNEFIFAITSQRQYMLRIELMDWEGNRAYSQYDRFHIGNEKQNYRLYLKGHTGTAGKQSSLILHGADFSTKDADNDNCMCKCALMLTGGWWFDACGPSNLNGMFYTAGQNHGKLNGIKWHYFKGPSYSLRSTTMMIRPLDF

B1: Ab 565 (antibody, V domains shown)
VH: QVQLVQSGAEVKKPGSSVKVSCKASGGTFSSYAISWVRQAPGQGLEWMGGIIPIFGTANYAQKFQGRVTITADESTSTAYMELSSLRSEDTAVYYCARSPIYYDILTGIDAFDIWGQGTMVTVSS
VL: EIVLTQSPGTLSLSPGERATLSCRASQSVSSSSLAWYQQKPGQAPRLLVYAASSRATGIPDRFSGSGSGTDFTLTISRLEPEDFAVYYCQHYGSSPRTFGQGTKVEIK
B2: Ab 544 (antibody, V domains shown)
VH: QVQLVQSGAEVKKPGASVKVSCKASGGTFSSYAISWVRQAPGQGLEWMGGIIPIFGTANYAQKFQGRVTITADESTSTAYMELSSLRSEDTAVYYCARFESGYWGDAFDIWGQGTMVTVSS
VL: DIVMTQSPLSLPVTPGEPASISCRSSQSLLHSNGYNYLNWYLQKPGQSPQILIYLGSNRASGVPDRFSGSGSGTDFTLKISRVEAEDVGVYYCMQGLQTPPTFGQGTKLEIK
B3: Ab 533 (antibody, V domains shown)
VH: EVQLVQSGGGVVQPGRSLRLSCAASGFTFSSYGMHWVRQAPGKGLEWVSYISSSGSTIYYADSVKGRFTISRDNAKNSLYLQMNSLRAEDTAVYYCARDLLDYDILTGYGYWGQGTLVTVSS
VL: SYELTQPPSVSVSPGQTARITCSGDALPKQYAYWYQQKPGQAPVLVIYKDSERPSGIPERFSGSSSGTTVTLTISGVQAEDEADYYCQSADSSHVVFGGGTKLTVL
B4: Ab 546 (antibody, V domains shown)
VH: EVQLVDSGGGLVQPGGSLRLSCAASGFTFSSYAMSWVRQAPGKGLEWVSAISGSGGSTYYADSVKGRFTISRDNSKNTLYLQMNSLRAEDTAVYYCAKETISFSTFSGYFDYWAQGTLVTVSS
VL: QSVLTQPSSVSEAPRQRVTISCSGSASNIGANGVSWYHQVPGKAPRLLLSHDGLVTSGVPDRLSVSKSGTSASLAISGLHSDDEGDYYCAVWDDSLNAVVFGGGTKLTVL
B5: Ab 528 (antibody, V domains shown)
VH: QVQLVQSGAEVKKPGSSVKVSCKASGGTFSSYAISWVRQAPGQGLEWMGGIIPIFGTANYAQKFQGRVTITADESTSTAYMELSSLRSEDTAVYYCARGVVGDFDWLSFFDYWGQGTLVTVSS
VL: SYELTQPPSVSVSPGQTASITCSGDKLGYTYTSWFQQKPGQSPVLVIFQDFKRPSGIPERFSGSNSGNTATLTISGTQAMDEADYYCQAWDSTTAVVFGTGTKVTVL
B6: Ab 555 (antibody, V domains shown)
VH: QVQLQESGGGVVQPGRSLRLSCAASGFTFSSYAMHWVRQAPGKGLEWVAVISYDGSNKYYADSVKGRFTISRDNSKNTLYLQMNSLRAEDTAVYYCARSASDHYYDSSGYYSDAFDIWGQGTMVTVSS
VL: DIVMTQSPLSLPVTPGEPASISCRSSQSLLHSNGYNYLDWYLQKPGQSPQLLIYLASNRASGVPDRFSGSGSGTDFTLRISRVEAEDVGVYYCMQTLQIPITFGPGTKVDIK
B7: Ab 543 (antibody, V domains shown)
VH: QVQLVQSGAEVKKPGSSVKVSCKASGGTFSSYAISWVRQAPGQGLEWMGRIIPILGIANYAQKFQGRVTITADKSTSTAYMELSSLRSEDTAVYYCARPYYDFWSGPGGMDVWGQGTTVTVSS
VL: not shown
B8: Ab 535 (antibody, V domains shown)
VH: B2 VH with A16S, E74K, R98A, E100S, S101P, G102F, Y103T, W104E, G105T
VL: QSVLTQPPSVSAAPGQKVTISCSGSNSNIGNNFVSWYQQLPGTAPKLLVYDNNKRPSGIPDRFSGSKSGTSATLGITGLQTGDEADYYCGTWDSSLSAAEVVFGGGTKLTVL
B9: Ab 553 (antibody, V domains shown)
VH: QVQLVQSGAEVKKPGASVKVSCKASGYTFTSYAMHWVRQAPGQRLEWMGWINAGNGNTKYSQKFQGRVTITRDTSASTAYMELSGLRSEDTAVYYCARGVDDYGGNSWAFDIWGQGTMVTVSS
VL: DIVMTQSPLSLPVTPGEPASISCRSSQSLLHSNGYNYLDWYLQKPGQSPQLLIYLGSNRASGVPDRFTGSGSATDFTLRISRVEAEDVGVYYCMQALQTPLTFGGGTKVEIK
B10: Ab 540 (antibody, V domains shown)
VH: QVQLVQSGAEVKKPGSSVKVSCKASGGTFSSYAISWVRQAPGQGLEWMGGIIPILGIANYAQKFQGRVTITADKFTSTAYMELSSLGSEDTAVYYCARAVPGTEDAFDIWGQGTMVTVSS
VL: QSVLTQPPSVSAAPGQKVTISCSGSSSNIGANYVSWYQQLPGTAPKLLIYNNNKRPSGIPDRFSGSKSDTSATLGITGLQTGDEADYYCGAWDSSLSASWVFGGGTKLTVL
B11: Ab 531 (antibody, V domains shown)
VH: EVQLVQSGAEVKKPGSSVKVSCKASGGTFSSYAISWVRQAPGQGLEWMGGIIPILGIANYAQKFQGRVTITADKSTNTAYMELTSLTSDDTAVYYCARDREDTAMVFNYWGQGTLVTVSS
VL: B10 VL with I20V, A31N, N51D, D69G, A91T, S99F
B12: Ab 537 (antibody, V domains shown)
VH: QVQLVQSGAEVKKPGSSVKVSCKASGGTFSSYAISWVRQAPGQGLEWMGGIIPILGIANYAQKFQGRVTITADKSTSTAYMELSGLGSEDTAVYYCARGSSDAAVAGMWGQGTLVTVSS
VL: QSVLTQPPSVSAAPGQDVTISCSGNNSNIGNNYVSWYQQVPGTAPKLLVYDNHKRPSGISDRFSGSKSDTSATLDITGLQPGDEADYYCGTWDTSLSANWVFGGGTKLTVL
B13: Ab 551 (antibody, V domains shown)
VH: QVQLVQSGAEVKKPGSSVKVSCKASGGTFSSYAISWVRQAPGQGLEWMGGIIPIFGTANYAQKFQGRVTITADESTSTAYMELSSLRSEDTAVYYCARGYDFWSGYSLDAFDIWGQGTMVTVSS
VL: not shown

The target of one assay is T1, hAng-2. The assay is described as follows: competition ELISA (Tie2-Fc). In general terms: ELISA stands for enzyme-linked immunosorbent assay.
B1 showed an IC50 of 0.26 nM.
As for B2, the IC50 is 0.97 nM.
Same read-out and setting: the value for B3 was 0.3 nM; that for B4 was 0.37 nM.

The target of another assay is T2, mAng-2. The assay can be described thus: competition ELISA (Tie2-Fc).
In turn, B1 returned an IC50 of 0.26 nM.
Same read-out and setting: the value for B2 was 1.82 nM; that for B3 was 0.08 nM.
Still for that read-out and setting: the value for B4 was 1.09 nM.

The target in another assay is T3, hAng-1. The assay can be described thus: competition ELISA (Tie2-Fc).
Consider B2, for which the IC50 was 23.3 nM. That is a double-digit nanomolar value.

Another assay addresses T3, hAng-1. The assay is described as follows: competition ELISA (no inhibition).
Consider B1, for which the binding result is recorded as “no binding”.
Consider B5, for which the binding result is given as “no binding”.
The same measure, in the same setting: the value for B6 was “no binding”; that for B7 was “no binding”; that for B8 was “no binding”.
On the same count and under the same terms, as for B3, the entry is “no binding”; as for B9, “no binding”; as for B10, “no binding”.
Still for that read-out and setting: as for B11, the entry is “no binding”; as for B4, “no binding”; as for B12, “no binding”.
Consider B13, for which the binding result is given as “no binding”.
